The results in this text go back to paper PMC5712522 (Nature Communications, 2017).

This series deals with the molecule itself. The series can be described thus: SEC-MALS; Shodex KW404-4F column; 50 μg of protein; PBS pH 7.2. A general note: In gel filtration, larger molecules generally elute earlier.

B1: LIMP-2 luminal domain H150A (domain or fragment, UniProt Q14108 28-431, looked up)
chain: VFQKAVDQSIEKKIVLRNGTEAFDSWEKPPLPVYTQFYFFNVTNPEEILRGETPRVEEVGPYTYRELRNKANIQFGDNGTTISAVSNKAYVFERDQSVGDPKIDLIRTLNIPVLTVIEWSQVAFLREIIEAMLKAYQQKLFVTHTVDELLWGYKDEILSLIHVFRPDISPYFGLFYEKNGTNDGDYVFLTGEDSYLNFTKIVEWNGKTSLDWWITDKCNMINGTDGDSFHPLITKDEVLYVFPSDFCRSVYITFSDYESVQGLPAFRYKVPAEILANTSDNAGFCIPEGNCLGSGVLNVSICKNGAPIIMSFPHFYQADERFVSAIEGMHPNQEDHETFVDINPLTGIILKAAKRFQINIYVKKLDDFVETGDIRTMVFPVMYLNESVHIDKETASRLKSMINT
notes: LIMP-2 (SCARB2), soluble luminal domain, residues 28–431, with H150A; also called dimerization-deficient mutant; source: Expi293F (HEK), purified in the same manner as the wild-type protein
As to B1, the binding result is “binds”.

B2: LIMP-2 luminal domain H150A/F151D (domain or fragment, UniProt Q14108 28-431, looked up)
chain: VFQKAVDQSIEKKIVLRNGTEAFDSWEKPPLPVYTQFYFFNVTNPEEILRGETPRVEEVGPYTYRELRNKANIQFGDNGTTISAVSNKAYVFERDQSVGDPKIDLIRTLNIPVLTVIEWSQVADLREIIEAMLKAYQQKLFVTHTVDELLWGYKDEILSLIHVFRPDISPYFGLFYEKNGTNDGDYVFLTGEDSYLNFTKIVEWNGKTSLDWWITDKCNMINGTDGDSFHPLITKDEVLYVFPSDFCRSVYITFSDYESVQGLPAFRYKVPAEILANTSDNAGFCIPEGNCLGSGVLNVSICKNGAPIIMSFPHFYQADERFVSAIEGMHPNQEDHETFVDINPLTGIILKAAKRFQINIYVKKLDDFVETGDIRTMVFPVMYLNESVHIDKETASRLKSMINT
notes: LIMP-2 (SCARB2), soluble luminal domain, residues 28–431, with H150A and F151D; also called dimerization-deficient mutant; source: Expi293F (HEK), purified in the same manner as the wild-type protein
For B2, the binding result is reported as “binds”.
